Consider one protein from publication PMC3441751, “Structure and Assembly of a Trans-Periplasmic Channel for Type IV Pili in Neisseria meningitidis” (PLoS Pathogens, 2012).

This data set deals with the molecule itself. Put plainly: cryo-EM structure; single particle averaging of unstained frozen-hydrated PilQ complexes in a dodecyl maltoside-containing buffer at 1 mg/ml; 25,303 particles; C12 symmetry.

By stoichiometry N is commonly meant a count of units in the complex or per binding partner.

B1: PilQ dodecamer (complete N. meningitidis PilQ oligomer) (natural protein)
chain: GNITDIKVSSLPNKQKIVKVSFDKEIVNPTGFVTSSPARIALDFEQTGISMDQQVLEYADPLLSKISAAQNSSRARLVLNLNKPGQYNTEVRGNKVWIFINESDDTVSAPARPAVKAAPAAPAKQQAAAPSTKSAVSVSEPFTPAKQQAAAPFTESVVSVSAPFSPAKQQAAASAKQQAAAPAKQQAAAPAKQQAAAPAKQTNIDFRKDGKNAGIIELAALGFAGQPDISQQHDHIIVTLKNHTLPTTLQRSLDVADFKTPVQKVTLKRLNNDTQLIITTAGNWELVNKSAAPGYFTFQVLPKKQNLESGGVNNAPKTFTGRKISLDFQDVEIRTILQILAKESGMNIVASDSVNGKMTLSLKDVPWDQALDLVMQARNLDMRQQGNIVNIAPRDELLAKDKALLQAEKDIADLGALYSQNFQLKYKNVEEFRSILRLDNADTTGNRNTLISGRGSVLIDPATNTLIVTDTRSVIEKFRKLIDELDVPAQQVMIEARIVEAADGFSRDLGVKFGATGKKKLKNDTSAFGWGVNSGFGGDDKWGAETKINLPITAAANSISLVRAISSGALNLELSASESLSKTKTLANPRVLTQNRKEAKIESGYEIPFTVTSIANGGSSTNTELKKAVLGLTVTPNITPDGQIIMTVKINKDSPAQCASGNQTILCISTKNLNTQAMVENGGTLIVGGIYEEDNGNTLTKVPLLGDIPVIGNLFKTRGKKTDRRELLIFITPRIMGTAGNSLRY
notes: PilQ secretin, Neisseria meningitidis; The source of the sample is in Text S1; also called entire PilQ dodecamer; intact PilQ oligomer; source: PilQ complexes resuspended in a dodecyl maltoside-containing buffer at 1 mg/ml; copies: 12
For the protein B1, the “stoichiometry N” value is 12.
